These are literature values, as cited in PMC11195831.

For orientation: Kd means the free concentration of one partner at which half of the binding sites on the other are occupied at equilibrium, for simple one-to-one binding.

In the data set the target is PD-1 (Homo sapiens) (UniProt Q15116). Nature of the data set: SPR.
PD-1 (Homo sapiens), sequence (Q15116 25-170): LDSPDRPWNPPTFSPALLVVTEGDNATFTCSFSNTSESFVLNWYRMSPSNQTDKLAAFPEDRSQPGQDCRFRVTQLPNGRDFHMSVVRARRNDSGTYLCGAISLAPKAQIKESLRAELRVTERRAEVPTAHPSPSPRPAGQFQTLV

For Retifanlimab, the Kd is 0.6 nM.

In the case of Dostarlimab, the Kd is 0.3 nM.
